Measured values reported in patent US20250154264A1 (GENOVAC ANTIBODY DISCOVERY, published 2025).

T1: human ALK5 on transiently transfected cells (human, UniProt P36897 34-503)
T1 construct: whole, on cells; also called ALK5 of human
T1 sequence (looked up): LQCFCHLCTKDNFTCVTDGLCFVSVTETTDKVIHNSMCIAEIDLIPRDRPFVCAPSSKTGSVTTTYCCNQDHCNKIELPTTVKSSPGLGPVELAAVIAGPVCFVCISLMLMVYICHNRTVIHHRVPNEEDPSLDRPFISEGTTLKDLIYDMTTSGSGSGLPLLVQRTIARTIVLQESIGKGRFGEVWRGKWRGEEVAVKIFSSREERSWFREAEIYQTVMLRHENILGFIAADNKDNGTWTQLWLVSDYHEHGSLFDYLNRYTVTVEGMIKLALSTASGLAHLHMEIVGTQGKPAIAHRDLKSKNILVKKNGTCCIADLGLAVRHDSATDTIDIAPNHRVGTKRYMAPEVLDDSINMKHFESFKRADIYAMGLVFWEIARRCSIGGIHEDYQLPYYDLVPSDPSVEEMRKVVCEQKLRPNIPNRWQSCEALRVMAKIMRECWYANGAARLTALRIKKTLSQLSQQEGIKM

T2: murine ALK1, N-terminally tagged, on transiently transfected cells (mouse, UniProt Q61288 23-502)
T2 construct: whole, on cells; also called mouse ALK1; murine orthologue; not shown: N-terminal tag used for the expression control
T2 sequence (looked up): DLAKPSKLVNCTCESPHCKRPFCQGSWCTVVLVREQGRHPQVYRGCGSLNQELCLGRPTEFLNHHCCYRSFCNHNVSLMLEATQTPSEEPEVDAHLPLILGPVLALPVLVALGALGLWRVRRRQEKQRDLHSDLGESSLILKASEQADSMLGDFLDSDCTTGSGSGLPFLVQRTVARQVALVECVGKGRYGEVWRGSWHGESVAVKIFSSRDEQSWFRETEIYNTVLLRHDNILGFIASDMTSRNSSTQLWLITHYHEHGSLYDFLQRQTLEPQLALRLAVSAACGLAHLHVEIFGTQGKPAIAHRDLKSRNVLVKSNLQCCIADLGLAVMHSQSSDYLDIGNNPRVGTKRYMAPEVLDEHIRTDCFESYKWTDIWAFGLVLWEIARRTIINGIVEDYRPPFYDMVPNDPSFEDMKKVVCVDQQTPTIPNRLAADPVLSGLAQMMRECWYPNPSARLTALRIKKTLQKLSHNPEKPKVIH

B1: BVO-B-1H7-E3 (antibody, V domains shown)
VH: QLQLQESGPGLVKPSETLSLTCTVSGGSISSRSYYWGWIRQPPGKGLEWIGNIYYSGSAFYNPSLKSRVTISVDTSKNQFSLKLSSVTAADTAVYYCARWDNWDVGAFDIWGQGTMVTVSS
VL: QSALTQPPSASGSPGQSVTISCTGTSSDVGGYNYVSWYQQHPGKAPKLMIYEVSKRPSGVPDRFSGSKSGNTASLTVSGLQAEDEADYYCTSFAGSNNWVFGGGTKLTVL
notes: Tested as OmniRat hybridoma supernatant and detected with goat anti-rat secondary antibody
B2: BVO-A-9F7-A10 (antibody, V domains shown)
VH: QVQLQQWGAGLLKPSETLSLTCAVYGGSFSSSYWNWIRQPPGKGLEWIGEVNHSGSTNYNPSLKSRVTISLDTSKNQFSLKLSSVTAADTAVYYCARSPRSGRIVGAVFDYWGQGTLVTVSS
VL: SYVLTQPPSVSVAPGQTARITCGGNNIGPKSVHWYQQKPGQAPVLVVYDDSDRPSGIPERFSGSNSGNTATLTISRVEAGDEADYYCQVWDSSNDHVVFGGGTKLTVL
notes: Tested as OmniRat hybridoma supernatant and detected with goat anti-rat secondary antibody; also called BVO-A-9E7-A10

Experiments:
[1] = target: T1, human ALK5 on transiently transfected …; experiment: flow cytometry, hybridoma supernatant on transiently transfected cells (Example 3)
Procedure: (§1) Flow cytometry was used to measure fluorescence intensity produced by fluorescent-labeled secondary antibodies detecting primary anti-ALK1 antibodies that bind to specific cell-associated ALK5 molecules. More precisely hybridoma supernatants containing primary antibodies were tested for binding to transiently transfected cells expressing ALK5 of human and mouse by flow cytometry. The signals were generated by use of secondary, PE-labelled goat anti-rat antibodies. In addition to testing the supernatants on non-transfected cells, ALK5 of human and mouse-transfected cells were incubated only with the secondary antibody (without supernatants) as a negative control.

[2] = target: T3, human ALK1 (Activin A receptor like type 1), N-terminally tagged, on transiently transfected cells (human, UniProt P37023 22-503); experiment: flow cytometry, hybridoma supernatant on transiently transfected cells, PE goat anti-rat secondary
T3 construct: also called ALK1 of human; ACVRL1; not shown: N-terminal tag used for the expression control
Procedure: as §1, with “Various isolated antibodies were assessed for the ability to bind ALK1 from mouse (murine), human, and cyno monkey. Flow” for “Flow”, “ALK1” for “ALK5”, “human, cyno monkey” for “human”

[3] = target: T2, murine ALK1, N-terminally tagged, on …; experiment: as above
Procedure: as §1, with “Various isolated antibodies were assessed for the ability to bind ALK1 from mouse (murine), human, and cyno monkey. Flow” for “Flow”, “ALK1” for “ALK5”, “human, cyno monkey” for “human”

T3 sequence (P37023 22-503): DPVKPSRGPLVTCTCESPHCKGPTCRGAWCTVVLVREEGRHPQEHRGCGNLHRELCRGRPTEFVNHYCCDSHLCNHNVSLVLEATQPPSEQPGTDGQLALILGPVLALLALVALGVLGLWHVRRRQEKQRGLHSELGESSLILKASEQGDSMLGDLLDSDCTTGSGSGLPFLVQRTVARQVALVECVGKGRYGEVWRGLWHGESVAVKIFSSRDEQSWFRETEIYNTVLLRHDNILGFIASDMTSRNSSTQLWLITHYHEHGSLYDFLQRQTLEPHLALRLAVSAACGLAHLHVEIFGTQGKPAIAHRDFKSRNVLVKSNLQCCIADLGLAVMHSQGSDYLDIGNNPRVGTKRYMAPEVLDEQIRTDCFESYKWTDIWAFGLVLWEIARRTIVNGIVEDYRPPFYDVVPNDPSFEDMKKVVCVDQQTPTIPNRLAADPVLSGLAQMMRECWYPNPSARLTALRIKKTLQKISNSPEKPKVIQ

| Binder | binding result [1] | binding result [2] | binding result [3] |
| --- | --- | --- | --- |
| B1 | no binding | binds | binds |
| B2 | no binding | binds | binds |
